Measurements: patent publication US20140371148A1
No end group written: not given here.

Biological target: Recombinant DPP-IV
Assay: cell-based or functional assay

Binder | DPP-IV IC50 [nM]
YAEGTFISDYSIALDKIHQQDFVNWLLAQKPSSGAPPPS-{Ado-Lys(N-ε-(2-(S)-cyano pyrrolidyl))} [[Leu^14] GIP(1-30)-exendin-4(31-39)-Ado-Lys-N-ε-(2-(S)-cyano pyrrolidyl)] | 82
YAEGTFISDYSIAMDKIHQQDFVNWLLAQKPSSGAPPPS (modifications not checked) [N-(γ-L-Glu-(2-(S)-cyano pyrrolidyl)-Ado-Ado) GIP(1-30)-exendin-4(31-39)] | 110
YAEGTFISDYSIAMDKIHQQDFVNWLLAQKPSSGAPPPS (modifications not checked) [[D-Ala^2] GIP(1-30)-exendin-4(31-39)-Ado-Lys-N-ε-(2-(S)-cyano pyrrolidyl)] | 85
